{
  "source": "patent US20180194853A1",
  "about": "(published 2018)",
  "binders": {"B1": {"name": "bispecific anti-IL-2Rβ/γc antibody P2H7/P2B9 (bispecific antibody)", "chain 1": "not shown", "chain 2": "QVQLQESGPGLVKPSETLSLTCTVSGGSISSSSYYWGWIRQPPGKGLEWIGSIYYSGSTYYNPSLKSRVTISVDTSKNQFSLKLSSVTAADTAVYYCAGDILTGYALDYWGQGTLVTVSSGGGGSGGGGSGGGGSSYELTQPPSMSVSPGQTARITCSGDALPKQFAFWYQQKPGQAPVLVIYKDTERPSGIPERFSGSSSGTTVTLTITGVQAEDEADYYCQSPDSSGTVEVFGGGTKLTVLNSGAGTAAATHTCPPCPAPEAAGGPSVFLFPPKPKDTLMISRTPEVTCVVVDVSHEDPEVKFNWYVDGVEVHNAKTKPREEQYNSTYRVVSVLTVLHQDWLNGKEYKCKVSNKALPAPIEKTISKAKGQPREPQVCTLPPSRDELTKNQVSLSCAVKGFYPSDIAVEWESNGQPENNYKTTPPVLDSDGSFFLVSKLTVDKSRWQQGNVFSCSVMHEALHNHYTQKSLSLSPGK"}},
  "key": {"recombinant human IL-2Rβ": {"target": "T1, recombinant human IL-2Rβ (human, UniProt P14784 27-240)", "T1 construct": "Recombinant chain immobilised on the SPR chip and used as ELISA antigen; also called CD122; interleukin 2 receptor β", "T1 sequence (looked up)": "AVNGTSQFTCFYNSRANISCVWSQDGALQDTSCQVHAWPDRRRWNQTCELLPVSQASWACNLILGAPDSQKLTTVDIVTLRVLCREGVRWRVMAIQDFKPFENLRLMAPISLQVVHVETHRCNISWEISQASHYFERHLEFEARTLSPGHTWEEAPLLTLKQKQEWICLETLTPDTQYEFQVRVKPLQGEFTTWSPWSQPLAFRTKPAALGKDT", "test": "SPR, receptor chain immobilised on the chip, antibody flowed over", "procedure": "(§1) Association/dissociation of the anti-IL-2Rβ/γc bispecific antibody to/from the receptor chains was measured in Surface Plasmon Resonance using recombinant IL-2Rβ or γc chains immobilised on a chip, and flowing various concentrations of the antibody over the surface."}, "recombinant human γc": {"target": "T2, recombinant human γc (human, UniProt P31785 23-262)", "T2 construct": "Recombinant chain immobilised on the SPR chip and used as ELISA antigen; also called common γ chain; CD132", "T2 sequence (looked up)": "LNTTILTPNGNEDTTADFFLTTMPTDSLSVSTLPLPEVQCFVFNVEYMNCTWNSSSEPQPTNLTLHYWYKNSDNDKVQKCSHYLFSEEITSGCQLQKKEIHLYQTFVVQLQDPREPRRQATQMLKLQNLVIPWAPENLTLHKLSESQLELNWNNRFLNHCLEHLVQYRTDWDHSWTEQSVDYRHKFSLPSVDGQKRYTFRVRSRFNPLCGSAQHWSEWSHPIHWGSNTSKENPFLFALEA", "test": "SPR, receptor chain immobilised on the chip, antibody flowed over", "procedure": "as §1"}},
  "data": [
    {"binder": "B1", "values": [
      {"measurement": "Kd", "setting": "recombinant human IL-2Rβ", "value": 101, "unit": "nM"},
      {"measurement": "Kd", "setting": "recombinant human γc", "value": 79.8, "unit": "nM"}
    ]}
  ]
}
